In patent US20220112288A1 (published 2022):

B1: 75110_07N04A (antibody, V domains shown)
VH: QVQLQESGPGLVKPSETLSLTCSVSGVSSTSFYWSWIRQPAGKGLDWIGRIYTSGSTNYNPSLKSRVTMSVDTSKNQFSLKLSSVTAADTAVYYCARDPGYSDAFAIWGQGTMVTVSS
VL: not shown
notes: Tested as antibody purified from AlivaMab Mouse hybridoma supernatant (human variable domains, kappa; mouse Fc, captured on anti-mouse IgG Fc sensors); also called ADS75110 purified AMM Ab
B2: 75110_08F20A (antibody, V domains shown)
VH: QVQLQESGPGLVKPSETLSLTCSVSGGSISTYYWSWIRQPAGKGLEWIGRICTTENTNYNPSLKSRVTMSIDSSKNQFSLKLSSVTAADTAVYYCARDLERLNYYGMDVWGQGATVTVSS
VL: DIQMTQSPSSLSASVGDRVTITCQASQDISKYLNWYQQKPGIAPKLLIYDASNLETGVPSRFSGSGSGTDFTFTISSLQPEDFATYYCQQYDSLPITFGQGTRLEIK
notes: as for B1
B3: 75110_08G08A (antibody, V domains shown)
VH: QVQLQESGPGLVKPSETLSLTCSVSGGSISTYYWSWIRQPAGKGLEWIGRICTTENTNYNPSLKSRVTMSIDSSKNQFSLKLSSVTAADTAVYYCARDLERLNYYGMDVWGQGATVTVSS
VL: DIQMTQSPSSLSASVGDRVTITCQASQDISNYLNWYQQKPGIAPKLLIYDASNLETGVPSRFSGSGSGTDFTFTISSLQPEDIATYYCQQYDSLPITFGQGTRLEIK
notes: as for B1
B4: 75110_07J02A (antibody, V domains shown)
VH: EVQLVESGGGLVQPGGSLRLSCAASGFTFSSYWMSWVRQAPGKGLEWVANIKEDGSEKYYVDSVKGRFTISRDNAKNSLYLQMNSLRAEDTAVYYCARDGSYSGYGMDVWGQGTTVTVSS
VL: AIQMTQSPSSLSASVGDRVTITCRASQGIRNDLGWYQQKPGKAPKLLIYAASSLQSGVPSRFSGRGSGTDFALTISSLQPEDFATYYCLLDYNYPYTFGQGTRLEIK
notes: as for B1
B5: 75110_10K21A (antibody, V domains shown)
VH: EVQLVESGGGLVQPGGSLRLSCAASGFTFSSYWMTWVRQAPGKGLEWVANIKQDGSEKYYVDSVKGRFTISRDNAKNSLYLQMNSLRAEDTAVYYCVRDRYDALDIWGQGTMVTVSS
VL: AIQMTQSPSSLSASVGDRVTITCRASQGIRNDLNWYQQKPGKAPKLLIYAASSLQSGVPSRFSGSGSGTDFTLTISSLQAEDFATYYCLKDYNYPYTFGQGTKLEIK
notes: as for B1
B6: 75110_08A13A (antibody, V domains shown)
VH: EVQLVESGGGLVQPGGSLRLSCAASGFIFSSYWMSWVRQAPGKGLEWVANIKQDGSEKYYMDSVKGRFTISRDNAKNSLYLQMNSLRAEDTAVYYCARDNSYYYYGMDVWGQGTTVTVSS
VL: AIQMTQSPSSLSASVGDRVTITCRASQGIRDDLGWYQQKPGKAPKLLIFAASSLQSGVPSSFSGSGSGTDFTLTISSLQPEDFATYYCLHHYNYPYTFGQGTKLEIK
notes: as for B1
B7: 75110_12H17A (antibody, V domains shown)
VH: EVQLVESGGGLVQPGGSLRLSCAASGFTFSDYWMSWVRQAPGKGLEWVANIKEDGNEKYYVDSVKGRFTISRDNAKNSLFLQMNSLRAEDTAVYYCAREGGQWLALDYWGQGALVTVSS
VL: DIQMTQSPSSVSASVGDRVTITCRASQGISSWLAWYQQKPGKAPKFLISGASSLQSGVPSRFTGSGSGTDFTLTISSLQPEDFATYYCQQANSFPWTFGQGTKVEIK
notes: as for B1
B8: 75110_12H19A (antibody, V domains shown)
VH: EVQLVESGGGLVQPGGSLRLSCAASGFTFSSYWMSWVRQAPGQGLEWVANINEDGNEKYHVDSVKGRLTISRDNAKNSLYLQMNSLRGVDTAVYFCAREGGQWLALDYWGQGALVTVSS
VL: DIQMTQSPSSVSASVGDRVSITCRASQGISSWLAWYQQKPGKAPKLLIYGASGLQSGVPSRFSGSGSGTDFTLTISSLQPEDFATYYCQQANSFPWTFGQGTKVEIK
notes: as for B1

biological target: T1, Rhesus macaque CD4-HIS (Acro Biosystems, Cat. CD4-C52H7) (rhesus macaque, UniProt P16003 26-390); test: BLI (Octet Red384); Ab on anti-mouse Fc (AMC) sensor; rhesus CD4-HIS 100/50/25 nM; global 1:1 fit;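 also: antibodies loaded at 10 µg/mL, an unrelated mouse-derived antibody served as internal reference, curves fit over association and dissociation phases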
T1 construct: Bought reagent; also called Rhesus CD4; rhesus CD4-HIS; not shown: His tag
T1 sequence (P16003 26-390 limits assumed): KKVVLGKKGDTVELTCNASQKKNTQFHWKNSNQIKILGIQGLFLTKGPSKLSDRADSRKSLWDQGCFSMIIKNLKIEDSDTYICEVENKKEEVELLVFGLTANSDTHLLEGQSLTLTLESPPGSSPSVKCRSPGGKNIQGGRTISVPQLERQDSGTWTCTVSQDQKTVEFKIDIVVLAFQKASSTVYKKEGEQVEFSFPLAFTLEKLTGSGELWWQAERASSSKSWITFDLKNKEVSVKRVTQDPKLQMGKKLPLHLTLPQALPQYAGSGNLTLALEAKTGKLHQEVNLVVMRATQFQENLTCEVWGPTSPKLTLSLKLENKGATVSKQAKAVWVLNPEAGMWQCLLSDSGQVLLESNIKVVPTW

B1 was tested. Which Kd did it give?
The Kd was < 0.001 nM.

And the Response?
The Response was 0.03.

What about the koff of the same binder?
The koff was < 1e-07 s⁻¹.

What about the kon of the same binder?
The kon was 13000 M⁻¹ s⁻¹.

What does the source list for B2?
Kd: 11 nM; Response: 0.22; koff: 0.0026 s⁻¹; kon: 230000 M⁻¹ s⁻¹

For B3, which Kd is on record?
Its Kd is 19 nM.

What about the Response of the same binder?
The Response was 0.15.

And the koff?
The koff was 0.0041 s⁻¹.

What about the kon of the same binder?
Its kon is 220000 M⁻¹ s⁻¹.

B4 was tested. Which Kd did it give?
Its Kd is 18 nM.

And the Response?
The Response was 0.14.

And the koff?
The koff was 0.0028 s⁻¹.

What about the kon of the same binder?
Its kon is 150000 M⁻¹ s⁻¹.

Which results are given for B5?
Kd: 2.1 nM; Response: 0.23; koff: 0.00033 s⁻¹; kon: 160000 M⁻¹ s⁻¹

B6 was tested. Which Kd did it give?
The Kd was 5.1 nM.

And the Response?
The Response was 0.15.

What about the koff of the same binder?
The koff was 0.00098 s⁻¹.

What about the kon of the same binder?
The kon was 190000 M⁻¹ s⁻¹.

B7 was tested. Which Kd did it give?
Its Kd is 22 nM.

And the Response?
Its Response is 0.23.

And the koff?
Its koff is 0.0032 s⁻¹.

What about the kon of the same binder?
Its kon is 150000 M⁻¹ s⁻¹.

Which results are given for B8?
Kd: 14 nM; Response: 0.28; koff: 0.0026 s⁻¹; kon: 190000 M⁻¹ s⁻¹
